This is an account of results in patent US20020123091.

This series deals with PRO256 polypeptide.
Sequence of PRO256 polypeptide (chain, as listed by the source): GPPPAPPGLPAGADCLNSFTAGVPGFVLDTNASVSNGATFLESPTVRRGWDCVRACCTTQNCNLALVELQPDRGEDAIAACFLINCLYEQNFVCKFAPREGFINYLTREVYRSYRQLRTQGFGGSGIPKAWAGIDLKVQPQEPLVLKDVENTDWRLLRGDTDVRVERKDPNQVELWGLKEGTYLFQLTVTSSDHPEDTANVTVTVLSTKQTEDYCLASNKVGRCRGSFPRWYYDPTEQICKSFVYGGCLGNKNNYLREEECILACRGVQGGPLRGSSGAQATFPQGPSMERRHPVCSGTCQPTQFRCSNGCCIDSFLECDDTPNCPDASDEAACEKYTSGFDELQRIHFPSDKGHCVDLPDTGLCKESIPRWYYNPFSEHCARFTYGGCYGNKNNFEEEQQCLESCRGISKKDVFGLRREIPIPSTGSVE

Sequence of human kallikrein (Haematologic Technologies) (chain, as listed by the source): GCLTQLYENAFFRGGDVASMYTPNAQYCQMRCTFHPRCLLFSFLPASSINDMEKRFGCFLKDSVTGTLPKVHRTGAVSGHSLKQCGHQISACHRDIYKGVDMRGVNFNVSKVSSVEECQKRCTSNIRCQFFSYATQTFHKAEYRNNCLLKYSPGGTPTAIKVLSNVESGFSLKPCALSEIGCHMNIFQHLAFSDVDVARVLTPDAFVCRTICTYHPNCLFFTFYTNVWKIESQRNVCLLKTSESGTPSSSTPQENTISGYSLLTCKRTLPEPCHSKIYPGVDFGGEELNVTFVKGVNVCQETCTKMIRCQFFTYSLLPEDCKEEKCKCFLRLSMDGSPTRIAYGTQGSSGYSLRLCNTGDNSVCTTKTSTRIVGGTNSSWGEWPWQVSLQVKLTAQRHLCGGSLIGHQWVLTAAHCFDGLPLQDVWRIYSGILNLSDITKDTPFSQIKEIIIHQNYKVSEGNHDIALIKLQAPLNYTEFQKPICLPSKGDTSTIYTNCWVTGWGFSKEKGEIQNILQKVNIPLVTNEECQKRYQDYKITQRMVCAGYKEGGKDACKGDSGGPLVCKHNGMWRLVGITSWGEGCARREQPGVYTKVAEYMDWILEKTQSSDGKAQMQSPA

As to “human kallikrein (Haematologic Technologies)”, the “kallikrein (40 nM) conversion of ^125I-scHGF into its two chain form, SDS-PAGE/autoradiography, PRO256 at 1 µM” value is given as “In the presence of PRO256, kallikrein conversion of ^125I-scHGF into its two chain form is inhibited over the 4 hour incubation period compared with the control”.
